Conditions: Escherichia coli (strain K12), Thermal, DSC, reversible: yes, whole UniProt chain shown
[1] = pH 2.5, 25 °C, glycine or acetate 5 mM or 10 mM
[2] = pH 10.3, 25 °C, glycine or CAPS 5 mM or 10 mM
[3] = pH 10.3, Sodium glycinate 50 mM

B1: Chemotaxis protein CheY wild type, P0AE67 (protein)
chain: MADKELKFLVVDDFSTMRRIVRNLLKELGFNNVEEAEDGVDALNKLQAGGYGFVISDWNMPNMDGLELLKTIRADGAMSALPVLMVTAEAKKENIIAAAQAGASGYVVKPFTAATLEEKLNKIFEKLGM
Q: What does the source list for B1?
A: heat capacity change of unfolding [1]: 0.89 kcal/mol/K; unfolding free energy [1]: 2.89 kcal/mol; Tm (pH 7, Sodium phosphate 50 mM): 58 °C; heat capacity change of unfolding (pH 7, Sodium phosphate 50 mM): 0.69 kcal/mol/K; unfolding enthalpy (calorimetric) (pH 7, Sodium phosphate 50 mM): 83.7 kcal/mol; heat capacity change of unfolding [2]: 0.84 kcal/mol/K; unfolding free energy [2]: 4.9 kcal/mol; Tm [3]: 55 °C; heat capacity change of unfolding [3]: 0.84 kcal/mol/K; unfolding enthalpy (calorimetric) [3]: 67 kcal/mol
